± gives the uncertainty stated by the source.
Test: self-splicing fitness, log relative to wild type (ln ratio); higher = more splicing; Tetrahymena group I intron in knt gene, E. coli kanamycin selection, DiMSum; sequences stand for … in CUCUCU…GGAGGGAAAAGUUAUCAGGCAUGCACCUGGUAGCUAGUCUUUAAACCAAUAGAUUGCAUCGGUUUAAAAGGCAAGACCGUCAAAUUGCGGGAAAGGGGUCAACAGCCGUUCAGUACCAAGUCUCAGGGGAAACUUUGAGAUGGCCUUGCAAAGGGUAUGGUAAUAAGCUGACGGACAUGGUCCUAACCACGCAGCCAAGUCCUAAGUCAACAGAUCUUCUGUUGAUAUGGAUGCAGUUCACAGACUAAAUGUCGGUCGGGGAAGAUGUAUUCUUCUCAUAAGAUAUAGUCGGACCUCUCCUUAAUGGGAGCUAGCGGAUGAAGUGAUGCAACACUGGAGCCGCUGGGAACUAAUUUGUAUGCGAAAGUAUAUUGAUUAGUUUUGGAGUACUCGUGGUCG
In short: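 DiMSum derived fitness as the error-weighted combination of fold changes across replicates, kanamycin versus no kanamycin, normalised to wild type. E. coli BL21(DE3) held the library, which randomised all eight P1ex-region intron nucleotides within the knt kanamycin-resistance gene on pET-22b(+). Six replicate transformations grew overnight at 37°C or 30°C on LB agar with or without 25 μg/mL kanamycin, also containing 100 μg/mL carbenicillin, 50 μM IPTG and 0.2% rhamnose, and pooled colonies were amplicon-sequenced on an Illumina HiSeq 2500.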

Sequence	self-splicing fitness (ln) (30 °C)	self-splicing fitness (ln) (37 °C)
UUUGAGCAAUAUUACGUGUG	-3.37 ± 0.23	-2.55 ± 0.33
AAAGAGCAAUAUUACGUUAU	-3.71 ± 0.25	-2.49 ± 0.23
AUUUAGCAAUAUUACGAGAC	-2.44 ± 0.39	–
UGAUAGCAAUAUUACGCACA	0.0791 ± 0.086	-0.216 ± 0.1
GUGCAGCAAUAUUACGUUGU	-3.71 ± 0.17	-2.56 ± 0.17
UAAUAGCAAUAUUACGGAUC	–	-2.05 ± 0.41
UCCCAGCAAUAUUACGUCGU	-1.69 ± 0.085	-0.682 ± 0.11
UUCGAGCAAUAUUACGAAGA	-2 ± 0.29	-1.36 ± 0.25
CAAGAGCAAUAUUACGCCAG	-1.92 ± 0.24	-2 ± 0.41
ACAUAGCAAUAUUACGUAUG	-2.67 ± 0.12	-1.73 ± 0.12
ACCUAGCAAUAUUACGUGCG	-1.5 ± 0.069	-0.773 ± 0.077
AUGUAGCAAUAUUACGAGUC	-2.95 ± 0.23	-3.28 ± 0.4
AAACAGCAAUAUUACGUGAG	-0.858 ± 0.04	-0.552 ± 0.064
GUACAGCAAUAUUACGGAAU	-2.76 ± 0.11	-1.46 ± 0.12
GGCGAGCAAUAUUACGCAUU	-1.13 ± 0.11	-0.998 ± 0.14
GUUUAGCAAUAUUACGAAUG	-1.2 ± 0.18	-0.733 ± 0.18
UUGGAGCAAUAUUACGGCCG	-1.89 ± 0.3	-0.616 ± 0.29
AUGAAGCAAUAUUACGAAGA	-1.9 ± 0.13	-0.83 ± 0.16
CUUAAGCAAUAUUACGAAAA	-1.9 ± 0.26	–
ACACAGCAAUAUUACGGGAC	-3.3 ± 0.14	-2.12 ± 0.14
UGGCAGCAAUAUUACGAUAA	-0.124 ± 0.1	0.0812 ± 0.1
CUCUAGCAAUAUUACGAGGU	-3.21 ± 0.26	-3.6 ± 0.29
UGUCAGCAAUAUUACGAUUA	-0.198 ± 0.061	0.519 ± 0.088
CGUUAGCAAUAUUACGUUUU	-4.77 ± 0.27	-2.99 ± 0.17
GAAGAGCAAUAUUACGCCGC	-2.05 ± 0.47	–
UCGUAGCAAUAUUACGUCUG	-0.251 ± 0.091	-0.589 ± 0.12

Sequence	self-splicing fitness (ln) (30 °C)	self-splicing fitness (ln) (37 °C)
CAGUAGCAAUAUUACGCCCG	0.504 ± 0.12	-0.351 ± 0.15
GGGCAGCAAUAUUACGGUCU	-3.22 ± 0.26	-1.03 ± 0.24
CCCUAGCAAUAUUACGUAGC	-2.65 ± 0.17	-2.75 ± 0.24
UAAAAGCAAUAUUACGUGCC	-2.01 ± 0.092	-1.26 ± 0.12
UUGAAGCAAUAUUACGGUAG	-0.0974 ± 0.088	0.0801 ± 0.12
UAGCAGCAAUAUUACGGGGU	-3.72 ± 0.14	-2.99 ± 0.16
GUCGAGCAAUAUUACGCGGA	-3.08 ± 0.29	-1.25 ± 0.19
UGGGAGCAAUAUUACGGGCG	-2.4 ± 0.27	-0.751 ± 0.26
UUCUAGCAAUAUUACGGGCA	-0.323 ± 0.12	-0.0935 ± 0.12
CAAUAGCAAUAUUACGUGUU	-4.08 ± 0.16	-2.95 ± 0.17
AAAGAGCAAUAUUACGGAAU	-2.79 ± 0.19	-2.57 ± 0.27
AAUUAGCAAUAUUACGGCUA	-0.905 ± 0.17	-0.685 ± 0.22
UGGAAGCAAUAUUACGUAUA	-2.2 ± 0.26	-1.27 ± 0.2
UACAAGCAAUAUUACGAUAG	-2.16 ± 0.093	-0.848 ± 0.089
GUUUAGCAAUAUUACGCACU	-1.41 ± 0.15	-0.128 ± 0.15
ACACAGCAAUAUUACGCCCG	-0.876 ± 0.092	-0.533 ± 0.12
GACAAGCAAUAUUACGUUUA	-1.66 ± 0.084	-1.58 ± 0.089
GCCCAGCAAUAUUACGGGUA	-1.34 ± 0.061	-0.511 ± 0.06
UUCAAGCAAUAUUACGAUGU	-2.21 ± 0.13	-1.31 ± 0.16
AAUUAGCAAUAUUACGUCCA	-0.685 ± 0.087	-1.2 ± 0.096
GGGAAGCAAUAUUACGGGUC	-2.67 ± 0.3	-2.08 ± 0.33
UUAUAGCAAUAUUACGAACU	-2.51 ± 0.18	-0.944 ± 0.18
UGCUAGCAAUAUUACGUGUA	-1.74 ± 0.1	-1.26 ± 0.1
CGACAGCAAUAUUACGAUGU	-2.74 ± 0.15	-2.59 ± 0.18
CUUCAGCAAUAUUACGCAGG	-4.17 ± 0.34	-2.07 ± 0.26
AUUGAGCAAUAUUACGGUAG	-3.32 ± 0.24	–

Sequence	self-splicing fitness (ln) (30 °C)	self-splicing fitness (ln) (37 °C)
CUAAAGCAAUAUUACGUUAC	-3.78 ± 0.26	-2.06 ± 0.31
UAUCAGCAAUAUUACGGGCG	0.0109 ± 0.065	0.684 ± 0.088
AUAGAGCAAUAUUACGUAAU	-0.582 ± 0.1	0.244 ± 0.12
UCAAAGCAAUAUUACGUUAA	-3.54 ± 0.19	-0.92 ± 0.12
GAGAAGCAAUAUUACGUCUA	-0.555 ± 0.076	0.35 ± 0.092
GACGAGCAAUAUUACGAGGU	-3.81 ± 0.28	-2.38 ± 0.27
GUCUAGCAAUAUUACGCAAU	-0.524 ± 0.082	-0.156 ± 0.082
AAAAAGCAAUAUUACGAGAU	-2.85 ± 0.13	-1.86 ± 0.2
ACAUAGCAAUAUUACGUCUA	-2.05 ± 0.096	-1.1 ± 0.083
UGAGAGCAAUAUUACGAAAU	-2.66 ± 0.22	-1.75 ± 0.32
CGAAAGCAAUAUUACGAGAU	-3.54 ± 0.34	-1.55 ± 0.17
CGUCAGCAAUAUUACGUCGG	-0.413 ± 0.042	0.115 ± 0.06
UGUAAGCAAUAUUACGAUGC	-3.75 ± 0.27	-2.34 ± 0.28
CUUUAGCAAUAUUACGUUUA	-3.03 ± 0.24	-1.64 ± 0.17
GCCAAGCAAUAUUACGGAGU	-0.992 ± 0.066	-1.57 ± 0.09
UAUUAGCAAUAUUACGUUAC	-3.17 ± 0.23	-2.86 ± 0.32
CCGGAGCAAUAUUACGAUAU	–	-2.37 ± 0.42
CGAGAGCAAUAUUACGUACG	-3.14 ± 0.17	-2.28 ± 0.29
AAUGAGCAAUAUUACGGGCC	–	-1.76 ± 0.39
GGGUAGCAAUAUUACGAUUG	-1.63 ± 0.23	-2.13 ± 0.25
GUGUAGCAAUAUUACGUAUG	-3.21 ± 0.23	-2.78 ± 0.27
UUUAAGCAAUAUUACGUUUU	-3.93 ± 0.2	-1.22 ± 0.16
CCUUAGCAAUAUUACGCUCC	–	-1.44 ± 0.5
AGGUAGCAAUAUUACGUUUG	-3.578 ± 0.024	-2.55 ± 0.039
CAUUAGCAAUAUUACGUUUU	-4 ± 0.24	-3.21 ± 0.24
GUCAAGCAAUAUUACGCCCA	-1.4 ± 0.15	-1.11 ± 0.14

Reference: the supplement of paper PMC7877785
